Biological target: the molecule itself
Assay: AUC; sedimentation velocity (4 °C, 49,000 rpm) and sedimentation equilibrium; 25 mM Tris-HCl pH 7.6, 200 mM NaCl, 2 mM TCEP; SE fitted with a single species model

B1: human SSRP1 lacking the C-terminal ID regions and the HMG domain (residues 1–433) (domain or fragment, UniProt Q08945 1-433, looked up)
chain: MAETLEFNDVYQEVKGSMNDGRLRLSRQGIIFKNSKTGKVDNIQAGELTEGIWRRVALGHGLKLLTKNGHVYKYDGFRESEFEKLSDFFKTHYRLELMEKDLCVKGWNWGTVKFGGQLLSFDIGDQPVFEIPLSNVSQCTTGKNEVTLEFHQNDDAEVSLMEVRFYVPPTQEDGVDPVEAFAQNVLSKADVIQATGDAICIFRELQCLTPRGRYDIRIYPTFLHLHGKTFDYKIPYTTVLRLFLLPHKDQRQMFFVISLDPPIKQGQTRYHFLILLFSKDEDISLTLNMNEEEVEKRFEGRLTKNMSGSLYEMVSRVMKALVNRKITVPGNFQGHSGAQCITCSYKASSGLLYPLERGFIYVHKPPVHIRFDEISFVNFARGTTTTRSFDFEIETKQGTQYTFSSIEREEYGKLFDFVNAKKLNIKNRGLKEG
notes: structure-specific recognition protein-1 (SSRP1), human, residues 1–433 (PH1–PH4; lacks ID1, HMG, ID2); Homodimer by sedimentation equilibrium; predicted monomer mass 49.8 kDa; also called hSSRP1ΔCTD; hSSRP1; source: E. coli BL21 (DE3) Gold, purified (Ni-NTA, TEV treatment, anion-exchange, size-exclusion chromatography); not shown: His6, N-terminal, cleaved
For B1, the “stoichiometry N” value was 2.

Source: PMC6028955 (The Journal of Biological Chemistry, 2018)
